From paper PMC9426574

Legend:
[1] = biological target: transferrin (Homo sapiens) (UniProt P02787); settings: cited from earlier work
HRP-labeled human S100A7 = HRP-labeled human S100A7 (UniProt P31151); assay: ELISA; settings: His-tagged TdfJ on NTA-coated 96-well plate; absorbance at 450 nm; parent: est. 100; read off a plot
[2] = biological target: His-tagged TdfJ K261P/R262P (purified) (Neisseria gonorrhoeae); assay: SPR; His-tagged TdfJ (89 μg/mL) immobilised on Ni-NTA sensor chip, free NTA blocked with His-tagged streptavidin; S100A7 injected at 1, 10, 50, 100, 500 nM, 20 μL/min; PBS pH 8.0; OpenSPR XT; steady-state, single-site fit (EC50 analysis setting)
[3] = biological target: His-tagged wild-type TdfJ (purified) (Neisseria gonorrhoeae); assay: as above

UniProt P02787, sequence (P02787 20-698): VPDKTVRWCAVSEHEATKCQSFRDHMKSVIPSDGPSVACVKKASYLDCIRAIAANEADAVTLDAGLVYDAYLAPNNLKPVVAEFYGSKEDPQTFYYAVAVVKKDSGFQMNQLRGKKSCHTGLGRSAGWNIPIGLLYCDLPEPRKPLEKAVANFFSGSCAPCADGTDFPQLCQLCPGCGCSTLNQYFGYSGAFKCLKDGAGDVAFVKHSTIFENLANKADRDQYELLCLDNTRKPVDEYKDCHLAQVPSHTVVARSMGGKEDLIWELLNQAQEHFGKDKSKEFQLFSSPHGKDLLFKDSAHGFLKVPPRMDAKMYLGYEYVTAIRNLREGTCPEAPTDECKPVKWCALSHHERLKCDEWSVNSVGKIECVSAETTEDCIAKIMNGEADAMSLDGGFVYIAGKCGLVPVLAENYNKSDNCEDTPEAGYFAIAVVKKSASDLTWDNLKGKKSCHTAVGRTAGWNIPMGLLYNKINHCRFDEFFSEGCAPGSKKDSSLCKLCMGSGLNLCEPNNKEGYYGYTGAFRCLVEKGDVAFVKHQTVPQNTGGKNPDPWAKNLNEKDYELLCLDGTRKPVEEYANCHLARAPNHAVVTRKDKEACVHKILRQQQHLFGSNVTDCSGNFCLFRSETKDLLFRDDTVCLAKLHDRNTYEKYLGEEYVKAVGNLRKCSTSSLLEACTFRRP

Row | Substance | percent of parent (% of Wildtype) (HRP-labeled human S100A7) | other results
1 | TbpA (from UniProt Q01996) |  | Kd [1]: 10 nM
2 | His-tagged wild-type TdfJ (purified) R262P | 79 | 
3 | His-tagged wild-type TdfJ (purified) Q265P | 80 | 
4 | His-tagged wild-type TdfJ (purified) Q265P; L266P | 20 | 
5 | His-tagged wild-type TdfJ (purified) L266P | 74 | 
6 | His-tagged wild-type TdfJ (purified) K261P; R262P | 3 | 
7 | His-tagged wild-type TdfJ (purified) K256E | 87 | 
8 | Human S100A7 (from UniProt P31151 1-101) (natural protein) |  | SPR response at equilibrium at 500 nM S100A7 [2]: 325 RU; Kd [3]: 41 nM; SPR response at 1 nM S100A7 [3]: 220 RU; SPR response at 500 nM S100A7 [3]: 900 RU
